Target: CD123 on the surface of EOL-1, KOPN-8 and MOLM-1 cells (UniProt P26951)
Test: cell-based or functional assay

Sequence of CD123 on the surface of EOL-1, KOPN-8 and MOLM-1 cells (P26951 19-378 limits assumed): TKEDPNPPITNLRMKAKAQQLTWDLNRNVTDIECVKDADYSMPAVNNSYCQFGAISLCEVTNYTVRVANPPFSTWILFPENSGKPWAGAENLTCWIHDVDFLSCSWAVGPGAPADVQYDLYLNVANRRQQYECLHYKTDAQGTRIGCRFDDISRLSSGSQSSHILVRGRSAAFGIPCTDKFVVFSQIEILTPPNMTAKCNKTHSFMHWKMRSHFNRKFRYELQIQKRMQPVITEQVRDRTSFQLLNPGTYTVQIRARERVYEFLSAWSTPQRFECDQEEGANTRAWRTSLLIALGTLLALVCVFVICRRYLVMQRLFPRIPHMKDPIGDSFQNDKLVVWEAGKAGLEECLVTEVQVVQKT

B1: huCD123-6Rv1.1-D2 (antibody, from a related filing, V domains shown)
VH: QFQLVQSGAEVVKPGASVKMSCKASGYTFTSSIMHWMKQKPGQGLEWIGYIKPYNDGTKYNQKFQGKATLTSDKSSSTANMELNSLTSEDSAVYYCAREGGNDYYDTMDYWGQGTSVTVSS
VL: DIQMTQSPSSMSASVGERVTITCRASQDINSYLSWFQQKPGKSPKTLIYRVNRLVDGVPSRFSGSGSGQDYSLTISSLEPEDMGIYYCLQYDAFPYTFGQGTKLEIKR
For B1, which IC50, in vitro cytotoxicity assay (WST-8), EOL-1 cells is on record?
The IC50, in vitro cytotoxicity assay (WST-8), EOL-1 cells was 2 pM.

And the IC50, in vitro cytotoxicity assay (WST-8), KOPN-8 cells?
Its IC50, in vitro cytotoxicity assay (WST-8), KOPN-8 cells is 5 pM.

What about the IC50, in vitro cytotoxicity assay (WST-8), MOLM-1 cells of the same binder?
The IC50, in vitro cytotoxicity assay (WST-8), MOLM-1 cells was 20 pM.

What about the fold loss of cytotoxicity when CD123 is blocked by chCD123-6 of the same binder?
The fold loss of cytotoxicity when CD123 is blocked by chCD123-6 was 100 fold.
